Test results as given in a protein production outcome set (Wang et al. 2014).

test: label from the status in PepcDB records

Sequence	protein production
MNSHCSHTFITDNRSPRARRGHAMSTLHKVKAYFGMAPMEDYDDEYYDDRAPSRGYARPRFDDDYGRYDGRDYDDARSDSRGDLRGEPADYPPPGYRGGYADEPRFRPREFDRAEMTRPRFGSWLRNSTRGALAMDPRRMAMMFEDGHPLSKITTLRPKDYSEARTIGERFRDGSPVIMDLVSMDNADAKRLVDFAAGLAFALRGSFDKVATKVFLLSPADVDVSPEERRRIAETGFYAYQ	failed
MNSILSSFKKNQKGIILILIASICTTIGQTLWKMSAMHNMLYILIGFFFYGIGAVGMIIALKYGSFSVIHPMMSMGYVFTIIVSYILLKESVGLGKIIGVILIMFGVAFIGLGDE	failed
MNSKSQQQEQQPIVFVTGTDTDVGKTFVSTLLVHKWKAAYWKPVQTGIESDQGDSETLKNFKIAASTWQPPIFTPTYALQKPLSPLQAMEYEPNVDIRLLDFVVPEEWSAENPLVVEGAGGVCVPITRKLEITTDLIKHLIETSGHPVYVVVVARSGLGTLNHTLLTWNHLCDNGLRSHLFGVILNGEPNEGNVQALKKFGVNIMAQVAQCTTAHDQDMELHELPSVESLMTQQDVE	failed
MNSMKLYIFACLCSLILWGVSCNEESAGIPTGSLFLGIEEDATLLTKAESAVTNESLRVDIIAAEGDTIKSYSDYIDEVKGKKIVLPVGTYTISVKSNQSEEAGWEKPFYSGSKEITIQSGEITSVQIVCKISNTKVAVEYADNLADYFSHYETTVSNTSGSLLYTRDETRAGFFKAEKLTADLKLVNQDGNEFAMQRVFPDIKERYFYKIKYSLDDGGGDNEEAGADFGGIIVDEKADTIYYGIFIKQEDLFGKSVPKLALDGFTENKIVYKKTENPSVPEHSLTIEAPNGIKQLKVETTSFQFADVPSFDLCNLTDAARTRLQQLDFPMQEVKDKQELTFVLTDFAKALEPASVTQMATHTFTFSVLDNLHQETTVQFIYEIRPNVNVTTEEPVVWAKFVTLRGNSIDRDNIGFMLKKKADADFQRYDATIYNEQTGDFSLLLIENIMPGTEYEYYAVSGTDAQGNVKTFTTSPIVNLKNNTFDEWFKNGKTWFPNVDVSKWWDSGNTGANTAGENNPTSPEESVVVKGKAAKLQSTWIGFIGIGAFASASMFTGNFVDIDGTNGILSFGQPFTAKPTKLTGYYKYTPVNIDYMEQWDSKVDPDLKSGDSDQCIIYIALCTKNYEIRTNPKSRQLFDPNDASVIAYGELVAKEAVSGEEANGYKKFSIDIKYRKTDVTPSYIVVVAAASRYGDYFTGGKGSTLYIDEFNLEYDYNAASFTNE	failed
MNSPANITDPLVLFMPSGKRGRFPVGTPVLDAARQLGVYVESVCGGRATCGRCQIEVQEGNFAKHKIVSSNDHISPKGPKEERYERVRGLPERRRLSCSAQILGDLVIDVPQDTVINALEHHHHHH	failed
MNSSIVNAGIDPQVRESLKSFVGEAIDYANTSGKDAAIAKFNDQNGTFVRGNLYVYAFDYNGTTLALPYQPQLIGTDLSGLQDPYGVNYTKLEHHHHHH	not failed
MNSVRKIKCLFLIFLDILFINLGYFISLCFEYGKEMKIEYFFNIRNLIILAIFTNILIFCFFNLYKNIWHMAGISECIRCLIASSISSILLILYKFIFNMDVTIVFLINSSILICMFSLLTRMSIRIFRKIYFPYKLESNLRKNVLIVGAGHCGRIVIDEMNKNNKFNPIGIVDDDLNKKGTFLNGVKVLGNRDDIEKICKRIKVDIILIAISNLSSNDKDEIIKRCENTKIKVKIIPSIYDLIDGNVKLTNIRDIDLRDLLGRDETRLDKEEVNNYIKEKIVIVTGGGGSIGSELCRQIAVFNPKKLIILDIYENYAYELENELKRNFKNLDLEVIIASIRDKSRLKKIFDKYKPDLIFHAAAHKHVPLMENNPEEAIKNNVLGTLNVAECADEFNLEKFVFISTDKAVNPTNIMGATKRIGEMIIQAMNEVSKTDFVAVRFGNVLGSNGSVIPLFIEQIKNGGPVTLTHKDITRYFMLIPEAAQLVLQAGAYAKGGEIFVLDMGKPVKIYDLTEKLIRLSGFEPNKDIQIKIVGLRPGEKLYEELILSEEELKKTKNEKIFILSPFKFDIKEIKKKIVELLNVALNEDKKAIKEKLKEIVKNYRDLEQIDFI	failed
MNTFAIPAPLIDAWRTTLETLRNLTGLGFGLLTRENGGELEIMVTAGELPSPFAEGYCLKGGPEGPLCAVVHTLARSLLIPDTTADARWASNPAVKAGVRAYFGLPLRLPTGALFGTLCLGSMSPVTGHDAVLKPLHCFATLVEQHIALLSTNALLRSQLDALPGASFASDPHGQMLFASNRCGSLLDLHPADIPGSDVDTVFNRIAALCESPEECHAILRRSFTLGGPSNGKLAFDDGRTIRWQARRLREDAGSVLGCTWFLEDATAELQARAGLTRSEALFRGLFNNAAVGIVLLDRQGFVVRSNVACARMLGTSPEQMHGLSFRAVLPPEDADQHLEEMQSLAEGETDELHGCWEMLHRNGSRLRVDLHGARLPGSGEEVVMLVGVDVTEQWRTERALAESERRYRALFDNAQAGIFRTSLADGTFLEANLRMAQMFGYDDVATFMAEYRAAENYVDPADRALMLDRLRTSGSFATMETHMRRRDGTTTWFLYSGTLDGDTIIGVANEISEMRATQEALRRSEERYRALFDNAADGLLLYEADGTLIDVNETIARRLGESREAIVGRNVASIVEPEVLERVRPRLAEILETGHASFESVHRTAMGPVNVEVHARRIEFEGRFVVLSSARDITERKNLEAALLREATTDPLTGGRNRRQFFVDANREFARALRHDSGLAVLMLDIDHFKNVNDLYGHQAGDEVLRAFAACCVEALRAYDVFGRLGGEEFAALLPAASPEEAMETAERLRKRVERRSVVYEGTALQCTVSVGVTSLAAADLGFDDMLRRADRALYAAKDHGRNRSEMAPMPMVPAEIPPPRKPFRE	failed
MNTKIITILFIAFLSVLFFTGCIEEKISSQEHGSTKGISSSNDENTENRTVTDSLGRQVQVPLMVERVADTWMGHNEVLAMLGADDRLVATMFSPQSRPWMYKVCPTFNDAVTLSPTYDIEELLATKPDVVFMSKSDKNLEKISNLGIPAVQVSFTDFDSMKKCISDTANVLGDEEALERAQQYNTYLDSKLESVRNTSSQIPDENRPKVLHVVSLSPLCVDGGGNIISDWIEAAGGVNAAEEVKGGIMQEVSMEQILKWNPDVIILSVNAKSREKEQIMNSDQWKKVKAIQDNRVFLNPEGAFIWSRAGAEEALQIQWAAKTINPDKFQFIDINNETKWFYKTFFEYELTDEEVQKILNAEAPN	failed
MNTKKESALSFPSAGIESFGERLKELMGDESLRAFANAIDTSEGGVRKWFTQSTMPSFDKMVRIARRYNVNLEWLCTGEGPKFPGETAAYESVICKTEEFSEEYALIDGYHTQVSTGHGAQWDNERVRRKLAFRSKWLRYRGLQPENLRVVFAKGDSMEPTIHSGDSILVDITDANLSDGSIFVLRIGDDLFAKRVQVHIDGSITIISDNKEYREQRVPVAELGLLSVVGKVVWIGKDVK	failed
MNTKLTKIISGLFVATAAFQTASAGNITDIKVSSLPNKQKIVKVSFDKEIVNPTGFVTSSPARIALDFEQTGISMDQQVLEYADPLLSKISAAQNSSRARLVLNLNKPGQYNTEVRGNKVWIFINESDDTVSAPARPAVKAAPAAPAKQQAAAPSTKSAVSVSKPFTPAKQQAAAPFTESVVSVSAPFSPAKQQAAASAKQQTAAPAKQQAATPAKQTNIDFRKDGKNAGIIELAALGFAGQPDISQQHDHIIVTLKNHTLPTTLQRSLDVADFKTPVQKVTLKRLNNDTQLIITTAGNWELVNKSAAPGYFTFQVLPKKQNLESGGVNNAPKTFTGRKISLDFQDVEIRTILQILAKESGMNIVASDSVNGKMTLSLKDVPWDQALDLVMQARNLDMRQQGNIVNIAPRDELLAKDKAFLQAEKDIADLGALYSQNFQLKYKNVEEFRSILRLDNADTTGNRNTLVSGRGSVLIDPATNTLIVTDTRSVIEKFRKLIDELDVPAQQVMIEARIVEAADGFSRDLGVKFGATGKKKLKNDTSAFGWGVNSGFGGDDKWGAETKINLPITAAANSISLVRAISSGALNLELSASESLSKTKTLANPRVLTQNRKEAKIESGYEIPFTVTSIANGGSSTNTELKKAVLGLTVTPNITPDGQIIMTVKINKDSPAQCASGNQTILCISTKNLNTQAMVENGGTLIVGGIYEEDNGNTLTKVPLLGDIPVIGNLFKTRGKKTDRRELLIFITPRIMGTAGNSLRY	failed
MNTNVYENTDSETITPLNKRRILPVFLLVGLYAASTAAVMSVLPFYIREMGGSPLIIGIIIATEAFSQFCAAPLIGHLSDRVGRKRILIVTLAIAAISLLLLANAQCILFILLARTLFGISAGNLSAAAAYIADCTHVRNRRQAIGILTGCIGLGGIVGAGVSGWLSRISLGAPIYAAFILVLGAALVAIWGLKDPSTTSRTTDKIASFSARAILKMPVLRVLIIVMLCHFFAYGMYSSQLPVFLSDTFIWNGLPFGPKALSYLLMADGVINIFVQLFLLGWVSQYFSERKLIILIFALLCTGFLTAGIATTIPVLIFAIVCISIADALAKPTYLAALSVHVSPARQGIVIGTAQALIAIADFISPVLGGFVLGYALYGVWIGIAISVAIIGLVTAMIYLSKSSPLIAKPETE	failed
MNTPHGPLEYSLNSPFKAKGRFGRLSFAAWSFVSTLAIIGMLLVISVVFGALASDSNAIQIFGSLLLIAIYVTFLVFSVIFIIRRLHDRNHNGWFAILFFIPIINLIFIIYLLCAKGDIETNRFGAPRATPSWERVMGWIYIVLMPIVVILGVSSDAMMAYQRYTLHSKQVSDVSQMIQPVSTHNNRLS	failed
MNTQEPAGLFTAVYEGDENTVVRLLRAGTAADARDEDGQTALYLAAVSNEPGIVRLLLAAGADPDRLSADADSPLCGAACGGHAEVVRALLAAGATADLEEEFGFRALTWAVQRGQVEILTELLAAGAHPDRPGPTGEAPLVAAARRGSPGCVRALLAHGAGARSPALDEARRWPALDVEAELRAGLEQMYGSGHEMVTHRIPEDGGITVEVQLRTGERTMAGNDQQTGHAAIITLLEAALGIATPVPELADRALRCGDPANDDWTEAVSVLVRRAGGETFTAATAWSRSPDPLRRALGTEILRKLGR	failed
MNTRAPAVEARQLIKTYPGDVTALSGMDITVEPGTVFGLLGPNGAGKSTTVKILTTLARPDSGTATVAGHDVLRHPDRVRRAIGVVAQSSGADPVATGRENLRLQGRLHGLKGAGLSRRVAELLDRFKLADAAGRQVKGYSGGMRRRLDVALGLVHRPEVLFLDEPTTGLDPEARTAMWDEIARLAGDEGLTILLTTHYLEEADRLAERIAIVDRGRVVVEGTPDGLKGELRGDAIHLELREAVGQAGRTLLKGSLGGVPGVHEVLFDDAQGRRVSVRADDGAAAMPALLGALERAGVGVAAATVARPSLDDVYLRHAGRRYSEAEAEGADSLALAGATGGTRLEHHHHHH	failed
MNTRLNEPDLPGDIDIKDLDPLVLQDLKVLSKDNADAVAKHMIMAATWLADDPQLALRHARAAKDRAGRVSVVRETNGIAAYHAGEWKEALSELRAARRMSGGPGLIAVMADCERGLGRPEKAIELAREEDLSSLDQDNLIELAIVVAGARHDLGQHDSAIVELQKVNPSLKSTGFTHSRLSYAYADALVLAGRGDEAREWFQHAATLDEDGYLDAEERIEQLDNGNN	failed
MNTRNFSLPQLQNLPIEEARIVADALAVHATSRQIDSAASKLAALAEAGLKGDRQAYAAYQQLLYVLSLSDDVATAQTRRWLARAIYRVEERFMPAADLSRALSEEDFQKRLEQEIAAQSRERHPMSQYVFSGSASRAQLQVFLRHQWFRTFRLYRDAADLLVNLTDVDEAAALARYLYGELGEEDEKGSHPRLLAKLLEAIGLEADFQAVSTMPEEIAYLNNRARAFRHAEVGWGLAVFYITELVVPGNHEKLYRALLQAGLSEDQAEYYKVHISLVPPRAKREWQLIARRIPDVQFQNAFLTSLSQHFRVERAYYDAIWEEMQSVK	not failed
